# Results reported in patent US20040235749A1 (HOSPITAL SAINTE JUSTINE, published 2004).
# Non-standard residues stand in square brackets, D forms with d. No end group written: not given here. dCha = N[C@H](CC1CCCCC1)C(=O)O
# B1: PCP-13.20 (peptide)
# peptide: [dI][dL]G[dH][dR][dD][dY]-NH2
# modifications: N-terminus assumed
# SMILES: CC[C@@H](C)[C@@H](N)C(=O)N[C@H](CC(C)C)C(=O)NCC(=O)N[C@H](Cc1c[nH]cn1)C(=O)N[C@H](CCCNC(=N)N)C(=O)N[C@H](CC(=O)O)C(=O)N[C@H](Cc1ccc(O)cc1)C(N)=O
# B2: PCP-13.21 (peptide)
# peptide: [dI][dL]G[dH][dR][dD][dY][dK]-NH2
# modifications: N-terminus assumed
# SMILES: CC[C@@H](C)[C@@H](N)C(=O)N[C@H](CC(C)C)C(=O)NCC(=O)N[C@H](Cc1c[nH]cn1)C(=O)N[C@H](CCCNC(=N)N)C(=O)N[C@H](CC(=O)O)C(=O)N[C@H](Cc1ccc(O)cc1)C(=O)N[C@H](CCCCN)C(N)=O
# Target: FP receptor in porcine tissue (retinal microvessels, uterine myometrium) (pig)
# Experiment: cell-based or functional assay
Binder,"% Inhibition of Maximal Response, 100 µM peptide, 10^-7 M PGF2α, porcine eyecup [%]","% Vasomotor Response (of maximum constriction), 100 µM peptide, 10^-7 M PGF2α, porcine eyecup [%]"
[dI][dL]A[dH][dR][dD][dY][dK] [PCP-13.8],53.2,46.8
B1,50.4,49.6
[dS][dN][dV][dL][dC][dS][dI][dF] [PCP-15],88.1,11.9
[dI][dL]G[dH][dK][dD][dY][dK] [PCP-13.13],63.1,36.9
[dI][dL]G[dCha][dR][dD][dY][dK] [PCP-13.24],93.8,6.2
[dI][dL]G[dH][dR][dD][dY][dK] [PCP-13],80,20
ILGHRDYK [PCP-8],50,50
[dY][dQ][dD][dR][dF][dY][dL][dL] [PCP-14],64,36
[dI][dL]G[dW][dR][dD][dY][dK] [PCP-13.22],83.4,16.6
[dI][dL]G[dH][dQ][dD][dY][dK] [PCP-13.18],70,30
B2,53.8,46.2
[dI][dL]G[dF][dR][dD][dY][dK] [PCP-13.11],87,13
WEDRFYLL [PCP-10],80,20
[dI][dL][dA][dH][dR][dD][dY][dK] [PCP-13.7],76.2,23.8

# Target: PAF receptor in porcine retinal microvessels (pig, UniProt Q9XSD4 1-342)
# Sequence (Q9XSD4 whole entry): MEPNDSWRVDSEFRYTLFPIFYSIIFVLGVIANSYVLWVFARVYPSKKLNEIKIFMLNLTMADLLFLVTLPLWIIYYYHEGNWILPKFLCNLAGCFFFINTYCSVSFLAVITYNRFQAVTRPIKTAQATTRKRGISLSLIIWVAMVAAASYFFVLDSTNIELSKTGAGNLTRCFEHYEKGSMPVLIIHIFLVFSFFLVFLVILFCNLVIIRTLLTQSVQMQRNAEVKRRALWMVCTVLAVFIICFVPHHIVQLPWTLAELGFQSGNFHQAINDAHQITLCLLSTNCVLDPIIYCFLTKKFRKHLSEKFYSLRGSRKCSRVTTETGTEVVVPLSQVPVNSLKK
# Experiment: cell-based or functional assay
row,Binder,"IC50, C-PAF induced retinal vasomotor responses, porcine eyecup [nM]"
1,[dL][dV][dP][dV][dS]G[dK][dE][dY] [SEQ ID NO:85],134

# Target: Urotensin receptor (GPR14) in porcine tissue (retinal microvessels, aortic strips) (pig)
# Experiment: cell-based or functional assay
row,Binder,"IC50, U-II (1 µM) mediated contractility of retinal microvessels [nM]"
1,[dV][dI][dR][dA][dT][dR][dP][dA][dL] [SEQ ID NO:79],115
